For experiment [1], the target named is T1, recombinant human BCMA Fc fusion protein (Acrobiosystems BC7-H5254 / BCA-H5254) (human, UniProt Q02223 1-54).
T1 construct: also called recombinant BCMA-Fc protein; not shown: Fc of the bought fusion protein, not described
T1 sequence (looked up): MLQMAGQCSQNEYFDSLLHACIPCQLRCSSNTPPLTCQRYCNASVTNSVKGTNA
Nature of the experiment: SPR, Fab as analyte, captured human BCMA-Fc. For orientation: Surface plasmon resonance follows binding to a sensor surface in real time, without labels.

Experiment [2] deals with T2, human BCMA on cells (NCI-H929, NCI-H929 CD38 KO, MOLP-8) (human, UniProt Q02223 1-184).
T2 construct: whole, on cells; endogenous BCMA of myeloma cell lines
T2 sequence (looked up): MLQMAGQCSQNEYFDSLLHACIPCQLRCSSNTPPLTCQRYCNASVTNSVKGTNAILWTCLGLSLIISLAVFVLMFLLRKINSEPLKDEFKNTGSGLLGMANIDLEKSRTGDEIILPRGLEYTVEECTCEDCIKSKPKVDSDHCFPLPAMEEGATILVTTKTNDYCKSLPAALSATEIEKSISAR
Kind of experiment: flow cytometry, NCI-H929 cells, one-site fit.

Experiment [3] has as its target T3, recombinant cynomolgus monkey BCMA Fc fusion protein (Acrobiosystems BCA-C5253) (cynomolgus monkey, UniProt A0A2K5UD97 1-53).
T3 construct: bought protein; not shown: Fc of the bought fusion protein, not described
Kind of experiment: SPR, Fab as analyte, captured cynomolgus BCMA-Fc.

In experiment [4] the target is T2, human BCMA on cells (NCI-H929, NCI-H929 …). Nature of the experiment: flow cytometry, NCI-H929 cells. For orientation: In flow cytometry, cells or beads pass a laser one at a time.
Experiment [5] concerns the target T4, recombinant cynomolgus monkey CD38-ECD-C-his protein (cynomolgus monkey, UniProt Q5VAN0 45-301).
T4 construct: made in house; Q5VAN0 residues 43-301 (residue 44 deleted) with C-terminal 6-His; also called cynomolgus monkey CD38-C-His; recombinant cynomolgus monkey CD38 protein
Kind of experiment: SPR, Fab as analyte, captured cynomolgus CD38-his.

For experiment [6], the target named is T5, Biotinylated Human CD38 Protein, Avitag, His Tag (Acrobiosystems CD8-H82E7) (human, UniProt P28907 43-300, biotinylated).
T5 construct: bought protein; also called biotinylated recombinant human CD38 protein; human CD38-avi-his
Nature of the experiment: SPR, Fab as analyte, biotin-captured human CD38.

Data on ten molecules can be found in US20240132615A1 (ICHNOS SCIENCES, published 2024).

T3 sequence (A0A2K5UD97 entry or part of it): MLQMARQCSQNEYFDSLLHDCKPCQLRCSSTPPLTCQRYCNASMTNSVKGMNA

B1: Anti-BCMA-D3-MP04-B11a FAB (Fab, V domains shown)
VH: EVQLVESGGGLIQPGGSLRLSCAASGFIFSHYEMNWVRQAPGKGLEWVSAIGQVDGEVYADSVKGRFTISRDNSKNTLYLQMNSLRAEDTAVYYCARVPYSYSGYSGADIWGQGTLVTVSS
VL: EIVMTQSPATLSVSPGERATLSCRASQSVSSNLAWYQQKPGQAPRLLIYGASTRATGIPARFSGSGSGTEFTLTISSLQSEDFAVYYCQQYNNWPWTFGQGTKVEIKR
notes: Fab
For B1, the Kd in experiment [1] came out at 0.14 nM; in experiment [2], 6.03 nM; in experiment [3], 0.24 nM. Further, the “Maximum binding (RFI)” value in experiment [4] came out at 23700 RFI.

B2: Anti-BCMA-D3-MP04-F3 FAB (Fab, V domains shown)
VH: EVQLVESGGGLIQPGGSLRLSCAASGFIFSHYEMNWVRQAPGKGLEWVSAIGQVGNTVYADSVKGRFTISRDNSKNTLYLQMNSLRAEDTAVYYCARVPYSYSGYSGADIWGQGTLVTVSS
VL: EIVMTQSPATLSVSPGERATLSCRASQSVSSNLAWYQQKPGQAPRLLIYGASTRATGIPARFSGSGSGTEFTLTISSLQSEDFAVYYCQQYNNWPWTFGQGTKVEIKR
notes: Fab
Regarding B2, the equilibrium dissociation constant (Kd) in experiment [1] turned out to be 0.64 nM; in experiment [2] it was 7.12 nM; in experiment [3], 3.03 nM. Besides, the “Maximum binding (RFI)” value in experiment [4] came out at 19500 RFI.

B3: Anti-BCMA-D3-MP04-G7 FAB (Fab, V domains shown)
VH: EVQLVESGGGLIQPGGSLRLSCAASGFIFSHYEMNWVRQAPGKGLEWVSAIGQRDGTVYADSVKGRFTISRDNSKNTLYLQMNSLRAEDTAVYYCARVPYSYSGYSGADIWGQGTLVTVSS
VL: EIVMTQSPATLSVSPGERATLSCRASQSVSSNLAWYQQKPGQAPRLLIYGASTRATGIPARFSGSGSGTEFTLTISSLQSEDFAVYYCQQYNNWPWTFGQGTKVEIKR
notes: Fab
B3: the Kd in experiment [1] came out at 0.08 nM; in experiment [2], 5.82 nM; in experiment [3], 0.14 nM. In addition, in experiment [4], the “Maximum binding (RFI)” value turned out to be 27000 RFI.

B4: Anti-BCMA-D3-MP05-F4 FAB (Fab, V domains shown)
VH: EVQLVESGGGLIQPGGSLRLSCAASGFIFSHYEMNWVRQAPGKGLEWVSAIGQGGNTVYADSVKGRFTISRDNSKNTLYLQMNSLRAEDTAVYYCARVPYSYLGYQGADIWGQGTLVTVSS
VL: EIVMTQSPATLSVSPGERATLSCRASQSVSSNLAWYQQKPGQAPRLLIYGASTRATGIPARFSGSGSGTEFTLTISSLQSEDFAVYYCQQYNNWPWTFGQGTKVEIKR
notes: Fab
As for B4, the equilibrium dissociation constant (Kd) in experiment [1] turned out to be 0.78 nM; in experiment [2], 11.8 nM; in experiment [3], 2.83 nM. In experiment [4], the “Maximum binding (RFI)” value was found to be 29900 RFI.

B5: Anti-BCMA-D3-MP04-B11c FAB (Fab, V domains shown)
VH: EVQLVESGGGLIQPGGSLRLSCAASGFIFSHYEMNWVRQAPGKGLEWVSAIGQVEGEVYADSVKGRFTISRDNSKNTLYLQMNSLRAEDTAVYYCARVPYSYSGYSGADIWGQGTLVTVSS
VL: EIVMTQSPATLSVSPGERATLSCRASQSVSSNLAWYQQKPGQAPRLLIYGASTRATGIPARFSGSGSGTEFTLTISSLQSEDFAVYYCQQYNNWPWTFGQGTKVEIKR
notes: Fab
Take B5: the dissociation constant Kd in experiment [1] was determined as 0.16 nM; in experiment [2], 3.9 nM; in experiment [3], 0.34 nM. Further, the “Maximum binding (RFI)” value in experiment [4] is 22900 RFI.

B6: Anti-BCMA-D3-MP04-B11b FAB (Fab, V domains shown)
VH: EVQLVESGGGLIQPGGSLRLSCAASGFIFSHYEMNWVRQAPGKGLEWVSAIGQVDAEVYADSVKGRFTISRDNSKNTLYLQMNSLRAEDTAVYYCARVPYSYSGYSGADIWGQGTLVTVSS
VL: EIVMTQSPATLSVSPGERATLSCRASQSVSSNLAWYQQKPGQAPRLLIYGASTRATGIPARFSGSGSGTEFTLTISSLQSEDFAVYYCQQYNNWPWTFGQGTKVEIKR
notes: Fab
On to B6, for which the values for the Kd in experiment [1], in experiment [2] and in experiment [3] were 0.52 nM, 14.1 nM and 0.79 nM, respectively. Further, the “Maximum binding (RFI)” value in experiment [4] is 23300 RFI.

B7: Anti-CD38-E2-UCP01-A10 FAB (Fab, V domains shown)
VH: QVQLVQSGAEVKKPGSSVKVSCKASGLPDATYAIGWVRQAPGQGLEWMGRIIPVFGSAHYAQKFQGRVTITADESTSTAYMELSSLRSEDTAVYYCARGLGYYLYSSYYFDIWGQGTLVTVSS
VL: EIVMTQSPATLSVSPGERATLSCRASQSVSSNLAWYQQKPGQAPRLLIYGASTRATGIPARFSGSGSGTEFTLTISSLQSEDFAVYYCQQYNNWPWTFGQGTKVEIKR
notes: Fab
Turning to B7, the figures for the Kd in experiment [5] and in experiment [6] were 8.6 nM and 9.4 nM, respectively.

B8: Anti-CD38-E2-UCP02-D6 FAB (Fab, V domains shown)
VH: QVQLVQSGAEVKKPGSSVKVSCKASGGSFSNYAIGWVRQAPGQGLEWMGRIIPRLDAEHYAQKFQGRVTITADESTSTAYMELSSLRSEDTAVYYCARGLGYYLYSSYYFDIWGQGTLVTVSS
VL: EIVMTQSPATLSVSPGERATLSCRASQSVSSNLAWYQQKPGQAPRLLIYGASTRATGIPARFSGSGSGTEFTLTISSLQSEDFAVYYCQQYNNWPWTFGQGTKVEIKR
notes: Fab
With B8, the Kd was determined as 1.1 nM in experiment [5] and 4.9 nM in experiment [6].

B9: Anti-CD38-E2-UCP02-A5 FAB (Fab, V domains shown)
VH: QVQLVQSGAEVKKPGSSVKVSCKASGGSFSNYAIGWVRQAPGQGLEWMGRIIPDLGAAHYAQKFQGRVTITADESTSTAYMELSSLRSEDTAVYYCARGLGYYLYSSYYFDIWGQGTLVTVSS
VL: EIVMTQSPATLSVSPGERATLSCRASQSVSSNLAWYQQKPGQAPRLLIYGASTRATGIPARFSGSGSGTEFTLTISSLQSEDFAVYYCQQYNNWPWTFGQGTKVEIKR
notes: Fab; also called anti-CD38-E2-A5; E2-A5
Regarding B9, the Kd in experiment [5] is 4.4 nM; in experiment [6] it was 23.6 nM.

B10: Anti-CD38-E2-UCP02-E7 FAB (Fab, V domains shown)
VH: QVQLVQSGAEVKKPGSSVKVSCKASGGSFSNYAIGWVRQAPGQGLEWMGRIIPALAATHYAQKFQGRVTITADESTSTAYMELSSLRSEDTAVYYCARGLGYYLYSSYYFDIWGQGTLVTVSS
VL: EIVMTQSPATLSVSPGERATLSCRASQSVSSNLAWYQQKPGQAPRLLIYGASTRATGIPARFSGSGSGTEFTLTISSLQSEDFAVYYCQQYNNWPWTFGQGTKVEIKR
notes: Fab
As to B10, the equilibrium dissociation constant (Kd) in experiment [5] turned out to be 1.8 nM; in experiment [6], 2.2 nM.

The term Kd denotes the free concentration of one partner at which half of the binding sites on the other are occupied at equilibrium, for simple one-to-one binding.
